For this experiment, the target named is mouse alpha (2) macroglobulin receptor (mouse, UniProt Q91ZX7 20-4545). The experiment is described as follows: cell-based or functional assay.
Chain of mouse alpha (2) macroglobulin receptor (Q91ZX7 other isoform, or with tags, fused parts or gaps limits assumed): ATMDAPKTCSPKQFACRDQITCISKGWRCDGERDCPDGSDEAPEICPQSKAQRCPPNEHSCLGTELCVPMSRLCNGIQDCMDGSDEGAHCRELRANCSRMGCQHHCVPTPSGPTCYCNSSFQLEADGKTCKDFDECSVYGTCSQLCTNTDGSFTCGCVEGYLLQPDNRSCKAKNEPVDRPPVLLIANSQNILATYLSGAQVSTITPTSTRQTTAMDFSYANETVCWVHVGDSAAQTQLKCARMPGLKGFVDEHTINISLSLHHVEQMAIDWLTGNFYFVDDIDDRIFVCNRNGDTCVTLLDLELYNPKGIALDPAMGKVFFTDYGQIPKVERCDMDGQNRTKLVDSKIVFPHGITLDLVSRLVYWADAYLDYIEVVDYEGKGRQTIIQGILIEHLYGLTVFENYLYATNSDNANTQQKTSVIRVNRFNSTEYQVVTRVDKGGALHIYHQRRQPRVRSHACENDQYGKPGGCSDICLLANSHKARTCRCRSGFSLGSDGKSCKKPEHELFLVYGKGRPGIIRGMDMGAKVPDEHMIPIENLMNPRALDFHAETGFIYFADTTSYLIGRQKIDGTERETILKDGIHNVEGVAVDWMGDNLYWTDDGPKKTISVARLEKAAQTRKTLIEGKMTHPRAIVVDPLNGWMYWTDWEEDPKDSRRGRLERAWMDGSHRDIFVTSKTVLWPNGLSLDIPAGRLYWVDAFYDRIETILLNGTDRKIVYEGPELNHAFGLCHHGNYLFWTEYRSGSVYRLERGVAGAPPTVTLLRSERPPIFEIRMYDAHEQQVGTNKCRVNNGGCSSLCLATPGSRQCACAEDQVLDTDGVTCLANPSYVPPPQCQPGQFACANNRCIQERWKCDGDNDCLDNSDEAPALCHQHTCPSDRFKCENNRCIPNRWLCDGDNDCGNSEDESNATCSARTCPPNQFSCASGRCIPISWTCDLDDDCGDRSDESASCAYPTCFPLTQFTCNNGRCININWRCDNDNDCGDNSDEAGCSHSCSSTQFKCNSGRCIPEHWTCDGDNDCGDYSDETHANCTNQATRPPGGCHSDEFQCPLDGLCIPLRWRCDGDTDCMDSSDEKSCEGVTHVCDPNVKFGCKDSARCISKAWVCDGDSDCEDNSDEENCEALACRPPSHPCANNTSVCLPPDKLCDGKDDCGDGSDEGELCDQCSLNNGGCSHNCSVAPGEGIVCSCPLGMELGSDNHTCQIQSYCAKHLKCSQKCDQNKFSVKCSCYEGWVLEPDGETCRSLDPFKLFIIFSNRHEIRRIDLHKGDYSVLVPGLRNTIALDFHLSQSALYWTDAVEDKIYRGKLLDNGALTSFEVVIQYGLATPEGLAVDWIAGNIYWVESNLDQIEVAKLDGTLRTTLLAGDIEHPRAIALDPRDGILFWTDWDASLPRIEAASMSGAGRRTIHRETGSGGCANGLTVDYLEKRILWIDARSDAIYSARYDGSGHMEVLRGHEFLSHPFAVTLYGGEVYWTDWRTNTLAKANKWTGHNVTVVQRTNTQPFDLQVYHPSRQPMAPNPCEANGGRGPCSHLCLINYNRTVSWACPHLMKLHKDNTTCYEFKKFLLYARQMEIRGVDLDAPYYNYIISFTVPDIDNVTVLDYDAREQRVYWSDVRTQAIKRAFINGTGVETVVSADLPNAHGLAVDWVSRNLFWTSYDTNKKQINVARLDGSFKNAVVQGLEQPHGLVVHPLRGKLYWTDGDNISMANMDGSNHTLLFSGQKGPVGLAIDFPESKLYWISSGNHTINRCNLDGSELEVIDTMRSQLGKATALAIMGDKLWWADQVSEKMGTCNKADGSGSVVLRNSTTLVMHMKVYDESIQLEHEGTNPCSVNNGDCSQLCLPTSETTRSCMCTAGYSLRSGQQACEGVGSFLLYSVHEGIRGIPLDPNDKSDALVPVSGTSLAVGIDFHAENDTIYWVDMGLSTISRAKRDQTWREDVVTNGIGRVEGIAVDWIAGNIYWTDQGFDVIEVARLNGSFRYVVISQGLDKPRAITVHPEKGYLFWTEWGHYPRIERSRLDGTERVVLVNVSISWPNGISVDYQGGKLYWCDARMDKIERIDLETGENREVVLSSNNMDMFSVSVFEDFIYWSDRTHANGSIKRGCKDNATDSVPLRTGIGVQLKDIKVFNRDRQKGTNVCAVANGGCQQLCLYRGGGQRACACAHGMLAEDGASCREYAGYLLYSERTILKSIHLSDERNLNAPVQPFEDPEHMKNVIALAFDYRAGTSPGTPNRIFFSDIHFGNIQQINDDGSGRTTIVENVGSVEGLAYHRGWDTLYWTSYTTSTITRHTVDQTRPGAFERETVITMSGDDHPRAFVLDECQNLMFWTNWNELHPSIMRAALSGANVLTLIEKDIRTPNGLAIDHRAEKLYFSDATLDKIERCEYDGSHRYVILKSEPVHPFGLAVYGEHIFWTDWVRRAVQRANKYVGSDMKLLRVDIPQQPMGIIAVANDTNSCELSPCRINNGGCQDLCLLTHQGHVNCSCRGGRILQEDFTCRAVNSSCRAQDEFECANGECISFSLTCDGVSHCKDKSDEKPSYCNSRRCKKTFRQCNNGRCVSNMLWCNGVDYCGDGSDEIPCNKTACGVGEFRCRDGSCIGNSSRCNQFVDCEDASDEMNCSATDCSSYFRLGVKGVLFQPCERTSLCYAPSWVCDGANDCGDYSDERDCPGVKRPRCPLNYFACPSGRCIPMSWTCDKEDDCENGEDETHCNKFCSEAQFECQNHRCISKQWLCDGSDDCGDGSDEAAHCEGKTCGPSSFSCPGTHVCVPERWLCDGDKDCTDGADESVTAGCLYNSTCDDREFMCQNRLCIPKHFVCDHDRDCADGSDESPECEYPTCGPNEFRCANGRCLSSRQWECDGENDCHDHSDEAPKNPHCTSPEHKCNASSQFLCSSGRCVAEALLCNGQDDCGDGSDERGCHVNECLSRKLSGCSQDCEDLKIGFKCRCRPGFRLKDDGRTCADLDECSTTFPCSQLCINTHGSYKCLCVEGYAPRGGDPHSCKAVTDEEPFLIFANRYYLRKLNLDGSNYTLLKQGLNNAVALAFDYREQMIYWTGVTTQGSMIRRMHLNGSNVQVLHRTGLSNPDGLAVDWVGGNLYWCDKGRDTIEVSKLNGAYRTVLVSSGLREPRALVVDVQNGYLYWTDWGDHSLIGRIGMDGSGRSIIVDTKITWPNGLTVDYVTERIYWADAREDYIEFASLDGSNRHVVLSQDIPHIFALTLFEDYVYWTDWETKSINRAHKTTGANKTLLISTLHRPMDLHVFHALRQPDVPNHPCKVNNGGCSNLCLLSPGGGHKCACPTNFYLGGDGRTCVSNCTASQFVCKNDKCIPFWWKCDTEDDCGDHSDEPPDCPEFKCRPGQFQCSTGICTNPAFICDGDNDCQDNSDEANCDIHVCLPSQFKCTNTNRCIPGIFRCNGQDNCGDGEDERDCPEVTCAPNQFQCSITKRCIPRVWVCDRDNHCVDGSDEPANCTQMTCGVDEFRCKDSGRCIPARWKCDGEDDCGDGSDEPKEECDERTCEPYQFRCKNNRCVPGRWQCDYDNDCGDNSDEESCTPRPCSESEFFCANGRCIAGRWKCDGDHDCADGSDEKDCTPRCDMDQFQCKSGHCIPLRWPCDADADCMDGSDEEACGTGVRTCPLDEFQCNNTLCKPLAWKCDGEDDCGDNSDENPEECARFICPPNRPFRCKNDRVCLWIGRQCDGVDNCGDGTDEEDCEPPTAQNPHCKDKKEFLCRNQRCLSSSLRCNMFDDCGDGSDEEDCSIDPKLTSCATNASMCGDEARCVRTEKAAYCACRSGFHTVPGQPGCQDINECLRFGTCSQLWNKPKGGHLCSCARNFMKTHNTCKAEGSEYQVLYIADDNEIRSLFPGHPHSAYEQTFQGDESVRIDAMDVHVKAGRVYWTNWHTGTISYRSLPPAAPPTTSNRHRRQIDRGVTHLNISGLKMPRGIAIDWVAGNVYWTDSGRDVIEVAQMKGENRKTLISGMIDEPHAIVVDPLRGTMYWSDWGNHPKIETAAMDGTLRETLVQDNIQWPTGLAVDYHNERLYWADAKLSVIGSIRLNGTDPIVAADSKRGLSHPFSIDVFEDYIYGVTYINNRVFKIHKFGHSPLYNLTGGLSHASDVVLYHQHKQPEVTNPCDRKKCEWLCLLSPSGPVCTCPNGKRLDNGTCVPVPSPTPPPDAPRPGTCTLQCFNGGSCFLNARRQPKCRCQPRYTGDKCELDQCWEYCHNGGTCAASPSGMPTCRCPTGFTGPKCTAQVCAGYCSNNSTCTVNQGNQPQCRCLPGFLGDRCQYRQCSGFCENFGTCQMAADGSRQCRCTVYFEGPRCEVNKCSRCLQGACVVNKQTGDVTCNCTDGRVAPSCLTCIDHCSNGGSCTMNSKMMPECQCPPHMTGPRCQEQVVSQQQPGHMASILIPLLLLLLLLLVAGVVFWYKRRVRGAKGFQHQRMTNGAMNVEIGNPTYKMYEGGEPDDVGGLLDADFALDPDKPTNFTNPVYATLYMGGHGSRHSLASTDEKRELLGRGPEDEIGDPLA

The molecule heat shock protein hsp70 (ligand) returned a molar excess of free HSP required to inhibit by 50% the re-presentation of gp96-chaperoned peptides at a gp96 concentration of 40 µg/ml (RAW264.7 cells) (fold molar excess) of 13.

As for heat shock protein hsp90 (ligand), the molar excess of free HSP required to inhibit by 50% the re-presentation of gp96-chaperoned peptides at a gp96 concentration of 40 µg/ml (RAW264.7 cells) (fold molar excess) is 2.

B1: heat shock protein gp96 (ligand, UniProt P08113 22-802, looked up)
chain: DDEVDVDGTVEEDLGKSREGSRTDDEVVQREEEAIQLDGLNASQIRELREKSEKFAFQAEVNRMMKLIINSLYKNKEIFLRELISNASDALDKIRLISLTDENALAGNEELTVKIKCDKEKNLLHVTDTGVGMTREELVKNLGTIAKSGTSEFLNKMTEAQEDGQSTSELIGQFGVGFYSAFLVADKVIVTSKHNNDTQHIWESDSNEFSVIADPRGNTLGRGTTITLVLKEEASDYLELDTIKNLVRKYSQFINFPIYVWSSKTETVEEPLEEDEAAKEEKEESDDEAAVEEEEEEKKPKTKKVEKTVWDWELMNDIKPIWQRPSKEVEEDEYKAFYKSFSKESDDPMAYIHFTAEGEVTFKSILFVPTSAPRGLFDEYGSKKSDYIKLYVRRVFITDDFHDMMPKYLNFVKGVVDSDDLPLNVSRETLQQHKLLKVIRKKLVRKTLDMIKKIADEKYNDTFWKEFGTNIKLGVIEDHSNRTRLAKLLRFQSSHHSTDITSLDQYVERMKEKQDKIYFMAGSSRKEAESSPFVERLLKKGYEVIYLTEPVDEYCIQALPEFDGKRFQNVAKEGVKFDESEKTKESREATEKEFEPLLNWMKDKALKDKIEKAVVSQRLTESPCALVASQYGWSGNMERIMKAQAYQTGKDISTNYYASQKKTFEINPRHPLIRDMLRRIKEDEDDKTVMDLAVVLFETATLRSGYLLPDTKAYGDRIERMLRLSLNIDPEAQVEEEPEEEPEDTSEDAEDSEQDEGEEMDAGTEEEEEETEKESTEKDEL
Turning to B1, the “molar excess of free HSP required to inhibit by 50% the re-presentation of gp96-chaperoned peptides at a gp96 concentration of 40 µg/ml (RAW264.7 cells)” value is roughly 6 fold molar excess.

Values taken from patent publication US20040072993A1 (UNIVERSITY OF CONNECTICUT HEALTH CENTER, published 2004).
